Assay results as given in patent US20170119892A1, “REFILLABLE DRUG DELIVERY DEVICES AND METHODS OF USE THEREOF” (President and Fellows of Harvard College, priority 2014, published 2017).

Columns and labels:
[1] = Alginate circulation time in the blood; format: in vivo, C57/B6 mice
Experimental: C57/B6 mice were injected retro-orbitally with 100 μL 0.5% fluorescent alginate (unoxidized alginate, Dye-750). Mice were shaved on the front and back and imaged with an IVIS Spectrum in vivo imager (ex: 745, em: 820) over 30 days. Shaving was repeated before every image collection. Fluorescence in the blood was measured through quantification of fluorescence in the snout area.
Efficient blood-based refilling of drug payloads relies on sufficient circulation lifetimes that allow payloads to encounter and bind to the primary device. The circulation time of alginate (285 KDa, 44 nm hydrodynamic radius (Rh)) conjugated to a near-IR probe (FIG. 6A) was analyzed following intravenous (IV) administration to mice. […] With a long circulation time, alginate can serve as an efficient intra-vascular drug carrier with the capability of extravasating and interacting with the primary drug delivery device.

[2] = tested on: Alginate conjugated to (T)20 oligonucleotides, ionically crosslinked with calcium to form a gel; assay: Binding of fluorescently-labeled oligonucleotides to DNA-conjugated calcium-alginate gels in vitro; settings: phosphate buffer with 1 mM calcium chloride
[3] = tested on: MDA-MB-231 xenograft tumors; assay: Xenograft tumor study with drug refilling; format: in vivo, J:Nu mice; settings: 120 ug doxorubicin per animal IV weekly
Experimental: Tumors were created by injecting 10^6 MDA-MB-231 cells (American Type Culture Collection, VA) combined with Matrigel (BD Biosciences, CA) to a total volume of 200 μL (100 μL PBS and 100 μL Matrigel) into the hind limbs of 8 week old J:Nu (Foxn1^nu/Foxn1^nu) mice (Jackson Labs, ME). 35 days following tumor inoculation tumors were injected with alginate gels. 20 mg/mL alginate conjugated to DNA (thioT-SH or unconjugated) was mixed with doxorubicin (1.6 mg drug per mL of gel), then crosslinked with 4% wt/v CaSO4 (1.22 M) and then 50 μL of gel were injected into tumors with a 23-gauge needle. 2, 3, 4, and 5 weeks after initial tumoral gel injection, mice were injected retro-orbitally with 100 μL 0.5% DNA-conjugated alginate carrying doxorubicin (5% oxidized alginate, thioA-SH, Dye-750, 160 ug Dox-hydrazide=120 μg Dox). Throughout the study, tumor area was measured twice per week with digital calipers in two dimensions and the product of the two dimensional values was used to approximate tumor area. Mice were sacrificed on day 49. […]
Immunocompromised mice bearing MDA-MB-231 xenograft tumors were injected intra-tumor with phosphorothioate DNA-conjugated alginate gels releasing doxorubicin (80 ug per animal) or bolus doxorubicin in PBS. […] The ability of targeted therapy to reduce tumor size was assessed by monitoring the change in tumor size in the three days following each IV administration.

alginate
circulatory half-life ([1]; IV administration to mice): about seven
remained in circulation ([1]; IV administration to mice, blood fluorescence measured at snout): at least 14 days
organ accumulation (imaging of individual organs) ([1]; two days after injection): accumulation in the lungs, liver, spleen, and to a lesser extent in the kidneys

(T)20: fluorescently-labeled TTTTTTTTTTTTTTTTTTTT-FAM oligonucleotide, SEQ ID NO: 5
binding of fluorescently-labeled oligonucleotides to gel surface [2]: little binding

(A)20: fluorescently-labeled AAAAAAAAAAAAAAAAAAAA-FAM oligonucleotide, SEQ ID NO: 6
binding of fluorescently-labeled oligonucleotides to gel surface [2]: bound to the gel surface in a sequence-specific manner

COc1cccc2c1C(=O)c1c(O)c3c(c(O)c1C2=O)C[C@@](O)(C(=O)CO)C[C@@H]3O[C@H]1C[C@H](N)[C@H](O)[C@H](C)O1 [doxorubicin]
change in tumor size in the three days following each IV administration [3]: continued to grow
